Experimental findings from publication PMC4763541, “Pitchfork and Gprasp2 Target Smoothened to the Primary Cilium for Hedgehog Pathway Activation” (PLoS ONE, 2016) are described below.

This test deals with T1, full-length hGPRASP2, purified recombinant (human, UniProt Q96D09 1-838).
T1 construct: human G protein-coupled receptor associated sorting protein 2 (GPRASP2), full length, cloned into pETM-11; source: E. coli Rosetta2 (DE3), purified (IMAC, TEV cleavage, second IMAC, SEC on Superdex 200); not shown: His6, N-terminal, cleaved
T1 sequence (looked up): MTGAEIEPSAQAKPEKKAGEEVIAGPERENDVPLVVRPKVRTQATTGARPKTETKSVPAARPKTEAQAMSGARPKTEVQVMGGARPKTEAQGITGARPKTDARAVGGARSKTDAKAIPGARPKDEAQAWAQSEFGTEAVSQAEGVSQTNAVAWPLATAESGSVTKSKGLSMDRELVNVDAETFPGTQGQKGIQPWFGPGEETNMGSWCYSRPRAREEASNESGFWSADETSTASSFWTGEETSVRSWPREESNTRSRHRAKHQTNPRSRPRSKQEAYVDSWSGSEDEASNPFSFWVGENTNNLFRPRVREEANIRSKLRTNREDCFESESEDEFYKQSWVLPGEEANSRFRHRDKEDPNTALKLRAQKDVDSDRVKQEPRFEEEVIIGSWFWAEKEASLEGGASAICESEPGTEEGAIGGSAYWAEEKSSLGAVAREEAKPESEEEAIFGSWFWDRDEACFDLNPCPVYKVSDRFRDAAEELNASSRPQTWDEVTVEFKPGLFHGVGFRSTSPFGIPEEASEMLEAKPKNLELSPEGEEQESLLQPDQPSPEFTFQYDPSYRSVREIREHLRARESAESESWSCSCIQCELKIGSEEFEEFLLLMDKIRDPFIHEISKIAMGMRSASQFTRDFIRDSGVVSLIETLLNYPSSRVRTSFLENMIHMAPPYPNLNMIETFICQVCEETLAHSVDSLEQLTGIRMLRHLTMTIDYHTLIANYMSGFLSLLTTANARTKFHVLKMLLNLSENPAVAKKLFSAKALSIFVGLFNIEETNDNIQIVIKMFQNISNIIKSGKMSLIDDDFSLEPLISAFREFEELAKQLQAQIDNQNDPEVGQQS
The experiment in a line: NMR titration; 1D 1H NMR (…), 800 MHz, 298 K; 100 μM peptide before and after addition of hGPRASP2 to 4 μM (1:25 hGPRASP2:peptide); 50 mM Tris.HCl pH 8, 300 mM NaCl, 0.01% 1-thioglycerol; line broadening and loss of intensity of the peptide signals. Particulars: both partners purified.

B1: hSMO-WT peptide (human SMO aa 539-552) (peptide, UniProt Q99835 539-552, looked up)
peptide: KATLLIWRRTWCRL
notes: source: synthetic peptide (PSL GmbH)
Regarding B1, the binding result is “binds”.
